Two molecules from publication PMC12607020, “NITAC-mediated ISGylation of eIF4E2 attenuates GSK3β proline-directed kinase activity, conferring cytoprotection” (The Journal of Biological Chemistry, 2025) can be followed below.

The target in this assay is T1, GST-eIF4E2 (UniProt O60573 1-245).
T1 construct: eukaryotic translation initiation factor 4E family member 2 (eIF4E2, 4EHP); also called GST-tagged eIF4E2; source: E. coli BL21, purified (glutathione sepharose beads)
T1 sequence (looked up): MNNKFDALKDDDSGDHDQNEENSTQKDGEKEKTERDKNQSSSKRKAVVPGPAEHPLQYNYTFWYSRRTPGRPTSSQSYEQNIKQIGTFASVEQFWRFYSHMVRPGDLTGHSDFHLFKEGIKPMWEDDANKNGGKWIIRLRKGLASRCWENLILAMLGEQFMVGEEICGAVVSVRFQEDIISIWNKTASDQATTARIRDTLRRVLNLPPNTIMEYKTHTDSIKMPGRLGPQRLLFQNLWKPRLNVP
The experiment in a line: pull-down; GST pull-down: 1 nM His6-tagged and 1 nM GST-tagged protein in 50 mM Hepes pH 7.5, 50 mM NaCl, 2 mM EDTA, 0.1% NP-40, 10% glycerol, 2 h at 4 °C; glutathione-sepharose beads; immunoblot. As to conditions: both partners purified. (In general: A western blot detects proteins with antibodies after separation by electrophoresis.)

B1: His6-tagged Nb.28E11 (VHH)
VHH: QVQLQESGGGLVQAGGSLRLSCAASGRTFSSYAMGWFRQAPGKEREFVAAISSGGSITNYADSVKGRFTISRDNAKNTVYLQMNSLKPEDTAVYYCAARYHSLYYGYWGQGTQVTVSS
notes: nanobody from a synthetic yeast-display library; also called His6-Nb.28E11; source: E. coli BL21, purified (Ni-NTA)
With B1, the binding result is reported as “binds”.

B2: His6-tagged Nb.30C7 (VHH)
VHH: QVQLQESGGGLVQAGGSLRLSCAASGYTFSSNVMGWFRQAPGKEREFVAAINSGGGRTNYADSVKGRFTISRDNAKNTVYLQMNSLKPEDTAVYYCAAYGRANSSYNYGYWGQGTQVTVSS
notes: nanobody from a synthetic yeast-display library; also called His6-Nb.30C7; source: E. coli BL21, purified (Ni-NTA)
Regarding B2, the binding result was “binds”.
